Molecular target: mysterin/RNF213, wild type, full length, C-terminally 3 × FLAG-tagged (mysterin-FLAG) and C-terminally cMyc-tagged (mysterin-Myc) copies (human) (UniProt Q63HN8)
Assay: co-IP; two differently tagged copies (C-terminal 3 × FLAG and cMyc) co-expressed in HEK-293 cells; lysate immunoprecipitated with anti-FLAG antibody, immunoblot with anti-Myc antibody; lysis buffer 1% NP-40, 150 mM KCl, 50 mM HEPES-NaOH pH 7.5
Settings: remark: other sources report otherwise

“mysterin/RNF213, wild type, full length, C-terminally 3 × FLAG-tagged (mysterin-FLAG) and C-terminally cMyc-tagged (mysterin-Myc) copies, Q63HN8 1-5207” gave an efficiency of the co-IP (co-IP divided by the basal expression level) of 1 to 3%.

— PMC3963067
